Assay results taken from paper PMC6509359 (Molecular Cell, 2019).

Target: the molecule itself
Assay: SEC-MALS; 100 μL of 1-2 mg/mL protein on Superdex 200 10/300, 0.5 mL/min, PBS + 2 mM DTT

Protein	stoichiometry N
Human USP25 (157-714) P521S F522E (domain or fragment, UniProt Q9UHP3 157-714, looked up, source: E. coli Rosetta2(DE3)pLacI, purified (HisTrap, 3C protease, Resource Q, size exclusion)) NPYDRKRQDKAPVGLKNVGNTCWFSAVIQSLFNLLEFRRLVLNYKPPSNAQDLPRNQKEHRNLPFMRELRYLFALLVGTKRKYVDPSRAVEILKDAFKSNDSQQQDVSEFTHKLLDWLEDAFQMKAEEETDEEKPKNPMVELFYGRFLAVGVLEGKKFENTEMFGQYPLQVNGFKDLHECLEAAMIEGEIESLHSENSGKSGQEHWFTELPPVLTFELSRFEFNQALGRPEKIHNKLEFPQVLYLDRYMHRNREITRIKREEIKRLKDYLTVLQQRLERYLSYGSGPKRFPLVDVLQYALEFASSKPVCTSPVDDIDASSPPSGSIPSQTLPSTTEQQGALSSELPSTSPSSVAAISSRSVIHKSETQSRIPPDLPMHPAPRHITEEELSVLESCLHRWRTEIENDTRDLQESISRIHRTIELMYSDKSMIQVPYRLHAVLVHEGQANAGHYWAYIFDHRESRWMKYNDIAVTKSSWEELVRDSFGGYRNASAYCLMYINDKAQFLIQEEFNKETGQPLVGIETLPPDLRDFVEEDNQRFEKELEEWDAQLAQKALQE	2
Human USP25 (157-714) P521A (domain or fragment, UniProt Q9UHP3 157-714, looked up, source: E. coli Rosetta2(DE3)pLacI, purified (HisTrap, 3C protease, Resource Q, size exclusion)) NPYDRKRQDKAPVGLKNVGNTCWFSAVIQSLFNLLEFRRLVLNYKPPSNAQDLPRNQKEHRNLPFMRELRYLFALLVGTKRKYVDPSRAVEILKDAFKSNDSQQQDVSEFTHKLLDWLEDAFQMKAEEETDEEKPKNPMVELFYGRFLAVGVLEGKKFENTEMFGQYPLQVNGFKDLHECLEAAMIEGEIESLHSENSGKSGQEHWFTELPPVLTFELSRFEFNQALGRPEKIHNKLEFPQVLYLDRYMHRNREITRIKREEIKRLKDYLTVLQQRLERYLSYGSGPKRFPLVDVLQYALEFASSKPVCTSPVDDIDASSPPSGSIPSQTLPSTTEQQGALSSELPSTSPSSVAAISSRSVIHKAFTQSRIPPDLPMHPAPRHITEEELSVLESCLHRWRTEIENDTRDLQESISRIHRTIELMYSDKSMIQVPYRLHAVLVHEGQANAGHYWAYIFDHRESRWMKYNDIAVTKSSWEELVRDSFGGYRNASAYCLMYINDKAQFLIQEEFNKETGQPLVGIETLPPDLRDFVEEDNQRFEKELEEWDAQLAQKALQE	2
Human USP25 (157-714) F522L (domain or fragment, UniProt Q9UHP3 157-714, looked up, source: E. coli Rosetta2(DE3)pLacI, purified (HisTrap, 3C protease, Resource Q, size exclusion)) NPYDRKRQDKAPVGLKNVGNTCWFSAVIQSLFNLLEFRRLVLNYKPPSNAQDLPRNQKEHRNLPFMRELRYLFALLVGTKRKYVDPSRAVEILKDAFKSNDSQQQDVSEFTHKLLDWLEDAFQMKAEEETDEEKPKNPMVELFYGRFLAVGVLEGKKFENTEMFGQYPLQVNGFKDLHECLEAAMIEGEIESLHSENSGKSGQEHWFTELPPVLTFELSRFEFNQALGRPEKIHNKLEFPQVLYLDRYMHRNREITRIKREEIKRLKDYLTVLQQRLERYLSYGSGPKRFPLVDVLQYALEFASSKPVCTSPVDDIDASSPPSGSIPSQTLPSTTEQQGALSSELPSTSPSSVAAISSRSVIHKPLTQSRIPPDLPMHPAPRHITEEELSVLESCLHRWRTEIENDTRDLQESISRIHRTIELMYSDKSMIQVPYRLHAVLVHEGQANAGHYWAYIFDHRESRWMKYNDIAVTKSSWEELVRDSFGGYRNASAYCLMYINDKAQFLIQEEFNKETGQPLVGIETLPPDLRDFVEEDNQRFEKELEEWDAQLAQKALQE	2
Chimera: Human USP25 (157-[AIM of Human USP28]-714) (domain or fragment) NPYDRKRQDKAPVGLKNVGNTCWFSAVIQSLFNLLEFRRLVLNYKPPSNAQDLPRNQKEHRNLPFMRELRYLFALLVGTKRKYVDPSRAVEILKDAFKSNDSQQQDVSEFTHKLLDWLEDAFQMKAEEETDEEKPKNPMVELFYGRFLAVGVLEGKKFENTEMFGQYPLQVNGFKDLHECLEAAMIEGEIESLHSENSGKSGQEHWFTELPPVLTFELSRFEFNQALGRPEKIHNKLEFPQVLYLDRYMHRNREITRIKREEIKRLKDYLTVLQQRLERYLSYGSGPKRFPLVDVLQYALEFASSKPVCTSPVDDIDASSPPSGSIPSQTLPSTTEQQGALSSELPSTSPSSVAAISSSLPKSKPLTSSRSSPDLPMHPAPRHITEEELSVLESCLHRWRTEIENDTRDLQESISRIHRTIELMYSDKSMIQVPYRLHAVLVHEGQANAGHYWAYIFDHRESRWMKYNDIAVTKSSWEELVRDSFGGYRNASAYCLMYINDKAQFLIQEEFNKETGQPLVGIETLPPDLRDFVEEDNQRFEKELEEWDAQLAQKALQE	2
Human USP25 (157-714) F522A (domain or fragment, UniProt Q9UHP3 157-714, looked up, source: E. coli Rosetta2(DE3)pLacI, purified (HisTrap, 3C protease, Resource Q, size exclusion)) NPYDRKRQDKAPVGLKNVGNTCWFSAVIQSLFNLLEFRRLVLNYKPPSNAQDLPRNQKEHRNLPFMRELRYLFALLVGTKRKYVDPSRAVEILKDAFKSNDSQQQDVSEFTHKLLDWLEDAFQMKAEEETDEEKPKNPMVELFYGRFLAVGVLEGKKFENTEMFGQYPLQVNGFKDLHECLEAAMIEGEIESLHSENSGKSGQEHWFTELPPVLTFELSRFEFNQALGRPEKIHNKLEFPQVLYLDRYMHRNREITRIKREEIKRLKDYLTVLQQRLERYLSYGSGPKRFPLVDVLQYALEFASSKPVCTSPVDDIDASSPPSGSIPSQTLPSTTEQQGALSSELPSTSPSSVAAISSRSVIHKPATQSRIPPDLPMHPAPRHITEEELSVLESCLHRWRTEIENDTRDLQESISRIHRTIELMYSDKSMIQVPYRLHAVLVHEGQANAGHYWAYIFDHRESRWMKYNDIAVTKSSWEELVRDSFGGYRNASAYCLMYINDKAQFLIQEEFNKETGQPLVGIETLPPDLRDFVEEDNQRFEKELEEWDAQLAQKALQE	2
Human USP25 (157-714) Q524S (domain or fragment, UniProt Q9UHP3 157-714, looked up, source: E. coli Rosetta2(DE3)pLacI, purified (HisTrap, 3C protease, Resource Q, size exclusion)) NPYDRKRQDKAPVGLKNVGNTCWFSAVIQSLFNLLEFRRLVLNYKPPSNAQDLPRNQKEHRNLPFMRELRYLFALLVGTKRKYVDPSRAVEILKDAFKSNDSQQQDVSEFTHKLLDWLEDAFQMKAEEETDEEKPKNPMVELFYGRFLAVGVLEGKKFENTEMFGQYPLQVNGFKDLHECLEAAMIEGEIESLHSENSGKSGQEHWFTELPPVLTFELSRFEFNQALGRPEKIHNKLEFPQVLYLDRYMHRNREITRIKREEIKRLKDYLTVLQQRLERYLSYGSGPKRFPLVDVLQYALEFASSKPVCTSPVDDIDASSPPSGSIPSQTLPSTTEQQGALSSELPSTSPSSVAAISSRSVIHKPFTSSRIPPDLPMHPAPRHITEEELSVLESCLHRWRTEIENDTRDLQESISRIHRTIELMYSDKSMIQVPYRLHAVLVHEGQANAGHYWAYIFDHRESRWMKYNDIAVTKSSWEELVRDSFGGYRNASAYCLMYINDKAQFLIQEEFNKETGQPLVGIETLPPDLRDFVEEDNQRFEKELEEWDAQLAQKALQE	2
Chimera: Human USP28 (149-[AIM of Human USP25]-703) (domain or fragment) PNPNDWRRVDGWPVGLKNVGNTCWFSAVIQSLFQLPEFRRLVLSYSLPQNVLENCRSHTEKRNIMFMQELQYLFALMMGSNRKFVDPSAALDLLKGAFRSSEEQQQDVSEFTHKLLDWLEDAFQLAVNVNSPRNKSENPMVQLFYGTFLTEGVREGKPFCNNETFGQYPLQVNGYRNLDECLEGAMVEGDVELLPSDHSVKYGQERWFTKLPPVLTFELSRFEFNQSLGQPEKIHNKLEFPQIIYMDRYMYRSKELIRNKRECIRKLKEEIKILQQKLERYVKYGSGPARFPLPDMLKYVIEFASTKPASESCPPESDTHMTLPLSSVHCSVSDQTSKESTSTESSSQDVESTFSSPEDRSVIHKPFTQSRIPMEMPSQPAPRTVTDEEINFVKTCLQRWRSEIEQDIQDLKTCIASTTQTIEQMYCDPLLRQVPYRLHAVLVHEGQANAGHYWAYIYNQPRQSWLKYNDISVTESSWEEVERDSYGGLRNVSAYCLMYINDKLPYFNAEAAPTESDQMSEVEALSVELKHYIQEDNWRFEQEVEEWEEEQSCKI	2
